Literature values as cited in US6823267B2, “Structural prediction of allosterism” (The Johns Hopkins University, priority 2000, dated 2004).

Target: glycerol kinase (Escherichia coli, UniProt P0A6F3)
Details: at 25° C.

Sequence of glycerol kinase (P0A6F3 whole entry): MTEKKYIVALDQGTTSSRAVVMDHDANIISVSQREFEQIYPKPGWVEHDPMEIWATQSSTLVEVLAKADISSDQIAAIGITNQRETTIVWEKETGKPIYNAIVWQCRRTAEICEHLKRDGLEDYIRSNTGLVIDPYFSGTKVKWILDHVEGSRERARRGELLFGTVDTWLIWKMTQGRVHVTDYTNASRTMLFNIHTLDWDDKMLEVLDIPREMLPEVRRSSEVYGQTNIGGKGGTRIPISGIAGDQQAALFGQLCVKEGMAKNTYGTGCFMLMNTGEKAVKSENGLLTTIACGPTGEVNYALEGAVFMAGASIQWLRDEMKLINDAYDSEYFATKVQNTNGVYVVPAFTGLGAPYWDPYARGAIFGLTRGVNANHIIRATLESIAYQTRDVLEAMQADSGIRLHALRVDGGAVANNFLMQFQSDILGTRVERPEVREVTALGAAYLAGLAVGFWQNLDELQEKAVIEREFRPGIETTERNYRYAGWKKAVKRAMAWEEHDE

B1: IIAGlc: protein that is an allosteric inhibitor of the enzyme glycerol kinase (protein, UniProt P69783 2-169, looked up)
PTS system glucose-specific …: GLFDKLKSLVSDDKKDTGTIEIIAPLSGEIVNIEDVPDVVFAEKIVGDGIAIKPTGNKMVAPVDGTIGKIFETNHAFSIESDSGVELFVHFGIDTVELKGEGFKRIAEEGQRVKVGDTVIEFDLPLLEEKAKSTLTPVVISNMDEIKELIKLSGSVTVGETPVIRIKK
- association constant of IIAGlc to glycerol kinase: ~10^5 M^−1
